Test results as given in US20140087995A1 (published 2014).
Numbered stars: 1 amine (or outer) side, 2 acyl side, 3 side chain; on linkers, the order of the positions; unused ones are H or OH. Bridge positions count the residues as written; N and C are the ends. Side chains are listed from the residue outwards. Ends that are not written are not given here. * marks the point of attachment. C20 diacid = O=C(O)CCCCCCCCCCCCCCCCCCC(=O)*; γGlu = O=C(O)[C@H](CCC(=O)[*:2])N[*:1]; AEEA = NCCOCCOCC(=O)O

T1: human calcitonin receptor (human, UniProt P30988 25-474)
T1 sequence (looked up): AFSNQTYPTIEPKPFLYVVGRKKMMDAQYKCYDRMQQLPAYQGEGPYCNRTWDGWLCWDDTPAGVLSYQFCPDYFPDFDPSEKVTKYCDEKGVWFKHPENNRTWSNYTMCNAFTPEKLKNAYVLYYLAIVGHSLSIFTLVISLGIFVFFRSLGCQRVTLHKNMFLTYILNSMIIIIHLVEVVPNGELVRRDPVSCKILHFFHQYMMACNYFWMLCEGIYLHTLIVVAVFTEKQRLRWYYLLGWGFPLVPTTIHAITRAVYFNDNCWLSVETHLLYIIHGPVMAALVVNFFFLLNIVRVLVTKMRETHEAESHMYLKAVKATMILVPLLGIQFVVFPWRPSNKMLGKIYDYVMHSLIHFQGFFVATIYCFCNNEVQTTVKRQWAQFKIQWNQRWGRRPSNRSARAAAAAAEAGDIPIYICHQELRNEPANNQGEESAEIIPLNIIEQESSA

T2: human amylin receptor (amylin 3(a) receptor: human calcitonin receptor with RAMP-3) (human, UniProt P30988 25-474; O60896 24-148)
T2 construct: whole, on cells; also called hAmylin-R; hAmylinR
T2 sequence (looked up) 1: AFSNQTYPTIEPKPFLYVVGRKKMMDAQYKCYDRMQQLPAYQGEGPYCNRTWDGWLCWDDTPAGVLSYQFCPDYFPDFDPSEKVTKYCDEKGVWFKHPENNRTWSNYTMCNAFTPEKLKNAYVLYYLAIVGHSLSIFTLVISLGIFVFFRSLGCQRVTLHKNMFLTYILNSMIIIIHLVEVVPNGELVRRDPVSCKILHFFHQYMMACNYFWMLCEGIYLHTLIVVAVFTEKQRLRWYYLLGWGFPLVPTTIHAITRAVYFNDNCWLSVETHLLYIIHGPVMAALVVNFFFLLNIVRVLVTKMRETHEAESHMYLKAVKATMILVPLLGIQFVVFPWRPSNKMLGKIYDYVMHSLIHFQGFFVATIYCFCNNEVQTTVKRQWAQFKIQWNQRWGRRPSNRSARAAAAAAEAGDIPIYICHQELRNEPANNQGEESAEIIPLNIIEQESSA
T2 sequence (looked up) 2: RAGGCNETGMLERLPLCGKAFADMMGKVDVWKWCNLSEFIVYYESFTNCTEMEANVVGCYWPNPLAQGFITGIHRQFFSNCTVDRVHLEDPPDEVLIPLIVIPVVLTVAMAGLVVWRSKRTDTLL

T3: human amylin 3(a) receptor (human calcitonin receptor co-expressed with RAMP-3) (human, UniProt P30988 25-474; O60896 24-148, limits assumed)
T3 sequence (looked up) 1: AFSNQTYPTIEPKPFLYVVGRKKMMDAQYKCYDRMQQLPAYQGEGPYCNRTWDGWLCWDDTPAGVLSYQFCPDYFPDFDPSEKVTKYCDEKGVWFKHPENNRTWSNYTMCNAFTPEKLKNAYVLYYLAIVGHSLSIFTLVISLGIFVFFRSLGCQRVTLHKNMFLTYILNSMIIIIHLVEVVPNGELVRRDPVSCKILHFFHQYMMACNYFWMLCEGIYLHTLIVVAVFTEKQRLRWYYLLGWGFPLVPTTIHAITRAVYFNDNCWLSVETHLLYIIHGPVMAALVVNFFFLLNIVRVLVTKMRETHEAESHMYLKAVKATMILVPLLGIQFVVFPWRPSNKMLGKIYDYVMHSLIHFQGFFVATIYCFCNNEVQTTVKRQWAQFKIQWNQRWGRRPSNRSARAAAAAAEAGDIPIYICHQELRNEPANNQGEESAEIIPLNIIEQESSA
T3 sequence (looked up) 2: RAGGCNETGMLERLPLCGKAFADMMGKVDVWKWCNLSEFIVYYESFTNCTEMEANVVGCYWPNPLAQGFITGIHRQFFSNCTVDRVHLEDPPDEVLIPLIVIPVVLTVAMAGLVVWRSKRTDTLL


Experiments:
[1] = target: T1, human calcitonin receptor; experiment: cell-based or functional assay
[2] = target: T2, human amylin receptor (amylin 3(a) …); experiment: SPA displacement of 125I-rat amylin, hAmylin 3(a) receptor membranes
How it was run: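 Cell membranes were prepared by homogenisation in Na-HEPES/EDTA buffer, pH 7.4, and stored at −80° C. They were then coupled to SPA beads at 35 ng/μL final and exposed to compounds in assay buffer containing CaCl2, MgCl₂, OA and Tween20. After 120 min at 25° C, plates were counted and IC₅₀ derived.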

[3] = target: T3, human amylin 3(a) receptor (human …); experiment: cell-based or functional assay

hCTR funct. EC50 [1]	IC50 [2]	Ratio hCT/hAmylin funct. (hCTR EC50 over hAmylin-R EC50) [3]	hAmylin-R funct. EC50 (pM) [3]	Binder
14.1 nM				K([γGlu-γGlu-C20 diacid])CNTATCATQRLADFLRHSSPNFGAIPSSTNVGSRTY-NH2 (disulfide 2-7; N-terminus assumed; SMILES CC[C@H](C)[C@H](NC(=O)[C@H](C)NC(=O)CNC(=O)[C@H](Cc1ccccc1)NC(=O)[C@H](CC(N)=O)NC(=O)[C@@H]1CCCN1C(=O)[C@H](CO)NC(=O)[C@H](CO)NC(=O)[C@H](Cc1c[nH]cn1)NC(=O)[C@H](CCCNC(=N)N)NC(=O)[C@H](CC(C)C)NC(=O)[C@H](Cc1ccccc1)NC(=O)[C@H](CC(=O)O)NC(=O)[C@H](C)NC(=O)[C@H](CC(C)C)NC(=O)[C@H](CCCNC(=N)N)NC(=O)[C@H](CCC(N)=O)NC(=O)[C@@H](NC(=O)[C@H](C)NC(=O)[C@@H]1CSSC[C@H](NC(=O)[C@@H](N)CCCCNC(=O)CC[C@H](NC(=O)CC[C@H](NC(=O)CCCCCCCCCCCCCCCCCCC(=O)O)C(=O)O)C(=O)O)C(=O)N[C@@H](CC(N)=O)C(=O)N[C@@H]([C@@H](C)O)C(=O)N[C@@H](C)C(=O)N[C@@H]([C@@H](C)O)C(=O)N1)[C@@H](C)O)C(=O)N1CCC[C@H]1C(=O)N[C@@H](CO)C(=O)N[C@@H](CO)C(=O)N[C@H](C(=O)N[C@@H](CC(N)=O)C(=O)N[C@H](C(=O)NCC(=O)N[C@@H](CO)C(=O)N[C@@H](CCCNC(=N)N)C(=O)N[C@H](C(=O)N[C@@H](Cc1ccc(O)cc1)C(N)=O)[C@@H](C)O)C(C)C)[C@@H](C)O, also called compound 52)
	0.443 nM			K([γGlu-C20 diacid])CNTATCATQRLANFLRHSSPNFGAIPSSTNVGSNTY-NH2 (disulfide 2-7; N-terminus assumed; SMILES CC[C@H](C)[C@H](NC(=O)[C@H](C)NC(=O)CNC(=O)[C@H](Cc1ccccc1)NC(=O)[C@H](CC(N)=O)NC(=O)[C@@H]1CCCN1C(=O)[C@H](CO)NC(=O)[C@H](CO)NC(=O)[C@H](Cc1c[nH]cn1)NC(=O)[C@H](CCCNC(=N)N)NC(=O)[C@H](CC(C)C)NC(=O)[C@H](Cc1ccccc1)NC(=O)[C@H](CC(N)=O)NC(=O)[C@H](C)NC(=O)[C@H](CC(C)C)NC(=O)[C@H](CCCNC(=N)N)NC(=O)[C@H](CCC(N)=O)NC(=O)[C@@H](NC(=O)[C@H](C)NC(=O)[C@@H]1CSSC[C@H](NC(=O)[C@@H](N)CCCCNC(=O)CC[C@H](NC(=O)CCCCCCCCCCCCCCCCCCC(=O)O)C(=O)O)C(=O)N[C@@H](CC(N)=O)C(=O)N[C@@H]([C@@H](C)O)C(=O)N[C@@H](C)C(=O)N[C@@H]([C@@H](C)O)C(=O)N1)[C@@H](C)O)C(=O)N1CCC[C@H]1C(=O)N[C@@H](CO)C(=O)N[C@@H](CO)C(=O)N[C@H](C(=O)N[C@@H](CC(N)=O)C(=O)N[C@H](C(=O)NCC(=O)N[C@@H](CO)C(=O)N[C@@H](CC(N)=O)C(=O)N[C@H](C(=O)N[C@@H](Cc1ccc(O)cc1)C(N)=O)[C@@H](C)O)C(C)C)[C@@H](C)O, also called 48; compound 48) [N^ε1-[(4S)-4-carboxy-4-(19-carboxynonadecanoylamino)butanoyl]-[Arg17,Pro21,Pro27]-h-amylin]
		17.4	307 pM	KCNTATCATQRLAEFLRHSSPNFGAIPSSTNVGSNTY (alpha-amino group of N-terminal Lys1 acylated with C20 diacid via linker gGlu-2xOEG; disulfide bridge Cys2-Cys7 and C-terminal amide as in human amylin, also called compound 19)
		16.4	164 pM	KCNTATCATQRLANFLRHSSPNFGAIPSSTNVGHNTY (alpha-amino group of N-terminal Lys1 acylated with C20 diacid via linker gGlu; disulfide bridge Cys2-Cys7 and C-terminal amide as in human amylin, also called compound 40) [N^α1-[(4S)-4-carboxy-4-(19-carboxynonadecanoylamino)butanoyl]-[Arg17,Pro21,Pro27,His34]-h-amylin]
		46.2	217 pM	K([AEEA-AEEA-γGlu-C20 diacid])CNTATCATQRLANFLRHSSPNFGAIPSSTNVGSETY-NH2 (disulfide 2-7; N-terminus assumed; SMILES CC[C@H](C)[C@H](NC(=O)[C@H](C)NC(=O)CNC(=O)[C@H](Cc1ccccc1)NC(=O)[C@H](CC(N)=O)NC(=O)[C@@H]1CCCN1C(=O)[C@H](CO)NC(=O)[C@H](CO)NC(=O)[C@H](Cc1c[nH]cn1)NC(=O)[C@H](CCCNC(=N)N)NC(=O)[C@H](CC(C)C)NC(=O)[C@H](Cc1ccccc1)NC(=O)[C@H](CC(N)=O)NC(=O)[C@H](C)NC(=O)[C@H](CC(C)C)NC(=O)[C@H](CCCNC(=N)N)NC(=O)[C@H](CCC(N)=O)NC(=O)[C@@H](NC(=O)[C@H](C)NC(=O)[C@@H]1CSSC[C@H](NC(=O)[C@@H](N)CCCCNC(=O)COCCOCCNC(=O)COCCOCCNC(=O)CC[C@H](NC(=O)CCCCCCCCCCCCCCCCCCC(=O)O)C(=O)O)C(=O)N[C@@H](CC(N)=O)C(=O)N[C@@H]([C@@H](C)O)C(=O)N[C@@H](C)C(=O)N[C@@H]([C@@H](C)O)C(=O)N1)[C@@H](C)O)C(=O)N1CCC[C@H]1C(=O)N[C@@H](CO)C(=O)N[C@@H](CO)C(=O)N[C@H](C(=O)N[C@@H](CC(N)=O)C(=O)N[C@H](C(=O)NCC(=O)N[C@@H](CO)C(=O)N[C@@H](CCC(=O)O)C(=O)N[C@H](C(=O)N[C@@H](Cc1ccc(O)cc1)C(N)=O)[C@@H](C)O)C(C)C)[C@@H](C)O, also called compound 25)
	0.552 nM			K([AEEA-γGlu-C20 diacid])RCNTATCATQRLANFLRHSSPNFGAIPSSTNVGSHTY-NH2 (disulfide 3-8; N-terminus assumed; SMILES CC[C@H](C)[C@H](NC(=O)[C@H](C)NC(=O)CNC(=O)[C@H](Cc1ccccc1)NC(=O)[C@H](CC(N)=O)NC(=O)[C@@H]1CCCN1C(=O)[C@H](CO)NC(=O)[C@H](CO)NC(=O)[C@H](Cc1c[nH]cn1)NC(=O)[C@H](CCCNC(=N)N)NC(=O)[C@H](CC(C)C)NC(=O)[C@H](Cc1ccccc1)NC(=O)[C@H](CC(N)=O)NC(=O)[C@H](C)NC(=O)[C@H](CC(C)C)NC(=O)[C@H](CCCNC(=N)N)NC(=O)[C@H](CCC(N)=O)NC(=O)[C@@H](NC(=O)[C@H](C)NC(=O)[C@@H]1CSSC[C@H](NC(=O)[C@H](CCCNC(=N)N)NC(=O)[C@@H](N)CCCCNC(=O)COCCOCCNC(=O)CC[C@H](NC(=O)CCCCCCCCCCCCCCCCCCC(=O)O)C(=O)O)C(=O)N[C@@H](CC(N)=O)C(=O)N[C@@H]([C@@H](C)O)C(=O)N[C@@H](C)C(=O)N[C@@H]([C@@H](C)O)C(=O)N1)[C@@H](C)O)C(=O)N1CCC[C@H]1C(=O)N[C@@H](CO)C(=O)N[C@@H](CO)C(=O)N[C@H](C(=O)N[C@@H](CC(N)=O)C(=O)N[C@H](C(=O)NCC(=O)N[C@@H](CO)C(=O)N[C@@H](Cc1c[nH]cn1)C(=O)N[C@H](C(=O)N[C@@H](Cc1ccc(O)cc1)C(N)=O)[C@@H](C)O)C(C)C)[C@@H](C)O, also called 45; compound 45)
